Results published in patent US20050142106A1 (MIT, published 2005).

T1: IL-2Rα on the surface of KIT225 or F15R-Kit cells (human, UniProt P01589 22-272)
T1 construct: whole, on cells; KIT225 cells also carry some IL-2Rβ and IL-2Rγ; also called IL-2 receptor α subunit; p55
T1 sequence (looked up): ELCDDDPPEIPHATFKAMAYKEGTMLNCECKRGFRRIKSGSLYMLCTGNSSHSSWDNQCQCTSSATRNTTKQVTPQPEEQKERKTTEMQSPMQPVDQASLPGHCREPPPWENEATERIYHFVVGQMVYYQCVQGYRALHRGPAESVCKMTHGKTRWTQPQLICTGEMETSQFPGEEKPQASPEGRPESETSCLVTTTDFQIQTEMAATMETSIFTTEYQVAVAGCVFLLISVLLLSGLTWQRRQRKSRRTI

T2: IL-2Rβ on YT-2C2 cells (human, UniProt P14784 27-551)
T2 construct: whole, on cells; YT-2C2 cells express about 20,000 IL-2Rβγ, so IL-2Rγ is also present; also called p75
T2 sequence (looked up): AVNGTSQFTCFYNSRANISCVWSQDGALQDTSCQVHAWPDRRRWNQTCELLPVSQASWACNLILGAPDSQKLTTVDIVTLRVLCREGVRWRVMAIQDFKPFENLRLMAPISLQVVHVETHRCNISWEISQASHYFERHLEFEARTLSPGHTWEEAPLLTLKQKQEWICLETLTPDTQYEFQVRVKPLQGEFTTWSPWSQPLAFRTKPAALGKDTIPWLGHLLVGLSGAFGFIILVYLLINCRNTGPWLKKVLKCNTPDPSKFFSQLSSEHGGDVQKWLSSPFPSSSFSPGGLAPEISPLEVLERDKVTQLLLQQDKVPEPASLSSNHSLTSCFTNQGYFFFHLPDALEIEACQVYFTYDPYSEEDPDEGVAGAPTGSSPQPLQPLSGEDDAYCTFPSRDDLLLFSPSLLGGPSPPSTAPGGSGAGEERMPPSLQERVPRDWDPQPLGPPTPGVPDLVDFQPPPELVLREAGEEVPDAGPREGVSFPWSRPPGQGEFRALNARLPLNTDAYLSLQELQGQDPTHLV


Key:
[1] = target: T3, IL-15Rα on F15R-Kit cells (UniProt Q13261 31-267); test: flow cytometry on F15R-Kit cells
T3 construct: whole, on cells
T3 sequence (Q13261 31-267, stated change not applied): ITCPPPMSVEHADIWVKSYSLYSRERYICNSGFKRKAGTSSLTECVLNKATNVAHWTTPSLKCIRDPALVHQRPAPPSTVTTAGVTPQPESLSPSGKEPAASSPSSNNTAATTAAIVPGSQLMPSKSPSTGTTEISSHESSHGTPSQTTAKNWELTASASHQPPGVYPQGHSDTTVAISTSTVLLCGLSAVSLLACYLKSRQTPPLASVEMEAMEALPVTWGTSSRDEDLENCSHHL

[2] = target: T1, IL-2Rα on the surface of KIT225 or …; test: flow cytometry on KIT225 cells, 37 C, anti-FLAG detection
Source text: Cells were washed with ice-cold PBS, pH 7.4, containing 0.1% bovine serum albumin (BSA) and labeled with a biotinylated antibody against the FLAG epitope followed by streptavidin-phycoerythrin on ice. We washed the cells again and determined mean single cell fluorescence using an EPICS-XL flow cytometer.

[3] = target: T1, IL-2Rα on the surface of KIT225 or …; test: flow cytometry on F15R-Kit cells, 30 min at 37 C, pH 7.4
Description: (pH 7.4). Cell surface bound protein was measured using flow cytometry. Data from two different experiments (FIG. 12) were used to estimate Kd values.

IL-2Rβ on YT-2C2 cells = target: T2, IL-2Rβ on YT-2C2 cells; test: flow cytometry on YT-2C2 cells, on ice, anti-FLAG detection, global fit
[4] = target: T1, IL-2Rα on the surface of KIT225 or …; test: flow cytometry on KIT225 cells, 37 C; the reference value is cited from the literature

Binder | binding result [1] | Kd [2] [nM] | Kd [3] [nM] | Kd (IL-2Rβ on YT-2C2 cells) [nM] | fold improvement in binding affinity relative to a wild-type Kd value of 28 nM (literature) [4] [fold]
IL-2 mutant M6 (V69A, Q74P, I128T) (ligand, not shown: small tags and cut ends, Soluble form secreted from yeast) APTSSSTKKTQLQLEHLLLDLQMILNGINNYKNPKLTRMLTFKFYMPKKATELKHLQCLEEELKPLEEALNLAPSKNFHLRPRDLISNINVIVLELKGSETTFMCEYADETATIVEFLNRWITFSQSTISTLT | no binding | ~1 | 1.22 | 210 | ≥ 30
IL-2 mutant WE3 (ligand, not shown: small tags and cut ends, also called N31610-25_) APTSSSTKKTQLQLEHLLLDLQMILNGINSYKNPKLTRMLTFKFYMPKKATELKHLQCLEEELKPLEEALNLAPSKNFHLRPRDLISNINVIVLELKGSETTFMCEYADETATIVEFLNRWITFSQSTISTLT | no binding | – | 0.778 | – | –
IL-2 mutant WC9 (ligand, not shown: small tags and cut ends, also called N31610-18_) APTPSSTKKARLQLEHLLLDLQMILNGINNYKNPKLTRMLTFKFYMPKKATELKHLQCLEEELKPLEEALNLAPSKNFHLRPRDLISDINVIVLELKGSETTFMCEYADETATIVEFLNRWITFSQSIISTLA | no binding | – | 1.58 | – | –

Binders with a lower Kd [3], results first:

binding result [1] | Kd [2] [nM] | Kd [3] [nM] | Kd (IL-2Rβ on YT-2C2 cells) [nM] | fold improvement in binding affinity relative to a wild-type Kd value of 28 nM (literature) [4] [fold] | Binder
no binding | – | 0.254 | – | – | IL-2 mutant 1a-1 (ligand, not shown: small tags and cut ends, also called N31610-01_) APTSSSTKKTQLQLEHLLLDLQMILNGINSYKNPKLTRMLTFKFYMPKKATELKHLQCLEEELKPLEDALALAPPRNFHLRPRDLISNIHVIVLELKGSETTFMCEYADETATIVEFLNRWITFSQSIISTLT
no binding | – | 0.18 | – | – | IL-2 mutant 2-4 (ligand, not shown: small tags and cut ends, also called N31618-14_; N31610-14_) APTSSSTKKTQLQLEHLLLDLQMILNGISNHKNPRLARMLTFKFYMPEKATELKHLQCLEEELKPLEEALRLAPSKNFHLRPRDLISDVNVIVLELKGSETTFMCEYADETATIVEFLNRWITFSQSIISTLT
no binding | – | 0.409 | – | – | IL-2 mutant 1b-8 (ligand, not shown: small tags and cut ends, also called N31618-08_) APTSSSTRKTQLRLEHLLLDLQMILDGINTYKNPRLRRMLTFKFYMPKKATELKHLQCLEEELKPLEEALNLAPSKNFHLRPRDLISNINVTVLELKGSETTFMCEYADETATIVEFLNRWITFSQSIISTLT
